This is an account of results in PMC3988174.

The target in the assay is atToc132 G-domain bait (Arabidopsis thaliana) (UniProt Q9SLF3). In words: two-hybrid; pairwise split-ubiquitin yeast two-hybrid of isolated NubG-preys with Toc159G, Toc132G or Toc132AG bait in NMY51; growth on SD-LWHA (3-AT) and quantitative β-Gal assay, activity relative to a reference bait set to 100%.
Chain of atToc132 G-domain bait (Arabidopsis thaliana) (Q9SLF3 456-794): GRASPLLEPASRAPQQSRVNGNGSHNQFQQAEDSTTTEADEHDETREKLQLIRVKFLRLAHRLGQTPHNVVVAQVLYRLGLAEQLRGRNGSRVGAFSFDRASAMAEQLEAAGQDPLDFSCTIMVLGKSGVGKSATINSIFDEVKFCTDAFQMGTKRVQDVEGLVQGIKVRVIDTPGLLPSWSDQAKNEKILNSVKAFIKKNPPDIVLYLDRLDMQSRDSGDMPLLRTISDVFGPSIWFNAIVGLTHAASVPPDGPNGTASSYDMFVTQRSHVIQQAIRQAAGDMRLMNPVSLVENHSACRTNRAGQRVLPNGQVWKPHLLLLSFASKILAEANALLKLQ

B1: Translationally controlled tumor protein (natural protein)
chain: MLVYQDLLTGDELLSDSFPYKEIENGILWEVEGKWVTVGAVDVNIGANPSAEEGGEDEGVDDSTQKVVDIVDTFRLQEQPTYDKKGFIAYIKKYIKLLTPKLSEEDQAVFKKGIEGATKFLLPRLSDFQFFVGEGMHDDSTLVFAYYKEGSTNPTFLYFAHGLKEVKC
B1 showed a % increase in strength of interaction (β-Gal) with 132G against 159G of 41%.

B2: Photosystem II subunit T (natural protein)
chain: MASMTMTATFFPAVAKVPSATGGRRLSVVRASTSDNTPSLEVKEQSSTTMRRDLMFTAAAAAVCSLAKVAMAEEEEPKRGTEAAKKKYAQVCVTMPTAKICRY
The molecule B2 had a % increase in strength of interaction (β-Gal) with 132G against 159G of 28.9%.

B3: 5′-Adenylylsulfate reductase 2 (natural protein)
chain: MALAVTSSSTAISGSSFSRSGASSESKALQICSIRLSDRTHLSQRRYSMKPLNAESHSRSESWVTRASTLIAPEVEEKGGEVEDFEQLAKKLEDASPLEIMDKALERFGDQIAIAFSGAEDVALIEYARLTGKPFRVFSLDTGRLNPETYRLFDAVEKQYGIRIEYMFPDAVEVQALVRNKGLFSFYEDGHQECCRVRKVRPLRRALKGLKAWITGQRKDQSPGTRSEIPIVQVDPVFEGLDGGVGSLVKWNPLANVEGADVWNFLRTMDVPVNALHAQGYVSIGCEPCTRPVLPGQHEREGRWWWEDAKAKECGLHKGNIKEEDGAADSKPAAVQEIFESNNVVALSKGGVENLLKLENRKEAWLVVLYAPWCPFCQAMEASYIELAEKLAGKGVKVAKFRADGEQKEFAKQELQLGSFPTILLFPKRAPRAIKYPSEHRDVDSLMSFVNLLR
As to B3, the % increase in strength of interaction (β-Gal) with 132G against 159G is 44.7%.

B4: Chloroplast chaperonin 10 (natural protein)
chain: MASTFVCSLPNPFFAFPVKATTPSTANHTLLGSRRGCLRIKAISTKWEPTKVVPQADRVLVRLEDLPIKSSGGVLLPKAAVKFERYLTGEIISVGSEVGQQVGPGKRVLFSDVSAYEVDLGTDARHCFCKESDLLALVE
As to B4, the % increase in strength of interaction (β-Gal) with 132G against 159G worked out at 42.1%.

B5: Tryptophan synthase, beta subunit 1 (natural protein)
chain: MAASGTSATFRASVSSAPSSSSQLTHLKSPFKAVKYTPLPSSRSKSSSFSVSCTIAKDPPVLMAAGSDPALWQRPDSFGRFGKFGGKYVPETLMHALSELESAFYALATDDDFQRELAGILKDYVGRESPLYFAERLTEHYRRENGEGPLIYLKREDLNHTGAHKINNAVAQALLAKRLGKKRIIAETGAGQHGVATATVCARFGLECIIYMGAQDMERQALNVFRMRLLGAEVRGVHSGTATLKDATSEAIRDWVTNVETTHYILGSVAGPHPYPMMVRDFHAVIGKETRKQALEKWGGKPDVLVACVGGGSNAMGLFHEFVNDTEVRMIGVEAAGFGLDSGKHAATLTKGDVGVLHGAMSYLLQDDDGQIIEPHSISAGLDYPGVGPEHSFFKDMGRAEYYSITDEEALEAFKRVSRLEGIIPALETSHALAYLEKLCPTLSDGTRVVLNFSGRGDKDVQTVAKYLDV
As for B5, the % increase in strength of interaction (β-Gal) with 132G against 159G stood at 19.6%.

B6: Protein LURP-one-related 15 Protein (natural protein)
chain: MEQPYVYAYPQGSGPSGAPTPQAGGVVVDPKYCAPYPIDMAIVRKMMSLTDGNFVITDVNGNLLFKVKEPVFGLHDKRVLLDGSGTPVVTLREKMVSMHDRWQVFRGGSTDQRDLLYTVKRSSMLQLKTKLDVFLGHNKDEKRCDFRVKGSWLERSCVVYAGESDAIVAQMHRKHTVQSVFLGKDNFSVTVYPNVDYAFIASLVVILDDVNREDRAA
In turn, B6 displayed a % increase in strength of interaction (β-Gal) with 132G against 159G of 29.9%.

B7: Glutathione S-transferase PHI 2 (natural protein)
chain: MAGIKVFGHPASIATRRVLIALHEKNLDFELVHVELKDGEHKKEPFLSRNPFGQVPAFEDGDLKLFESRAITQYIAHRYENQGTNLLQTDSKNISQYAIMAIGMQVEDHQFDPVASKLAFEQIFKSIYGLTTDEAVVAEEEAKLAKVLDVYEARLKEFKYLAGETFTLTDLHHIPAIQYLLGTPTKKLFTERPRVNEWVAEITKRPASEKVQ
B7 came in with a % increase in strength of interaction (β-Gal) with 132G against 159G of 52%.

B8: Lactoylglutathionelyase (natural protein)
chain: MASEARESPANNPGLSTNRDEATKGYIMQQTMFRIKDPKASLDFYSRVLGMSLLKRLDFSEMKFSLYFLGYEDTTTAPTDPTERTVWTFGQPATIELTHNWGTESDPEFKGYHNGNSEPRGFGHIGVTVDDVHKACERFEELGVEFAKKPNDGKMKNIAFIKDPDGYWIEIFDLKTIGTTTVNAA
Take B8: the % increase in strength of interaction (β-Gal) with 132G against 159G came to 91.5%.

B9: Geranylgeranyl reductase (natural protein)
chain: MLFSGSAIPLSSFCSLPEKPHTLPMKLSPAAIRSSSSSAPGSLNFDLRTYWTTLITEINQKLDEAIPVKHPAGIYEAMRYSVLAQGAKRAPPVMCVAACELFGGDRLAAFPTACALEMVHAASLIHDDLPCMDDDPVRRGKPSNHTVYGSGMAILAGDALFPLAFQHIVSHTPPDLVPRATILRLITEIARTVGSTGMAAGQYVDLEGGPFPLSFVQEKKFGAMGECSAVCGGLLGGATEDELQSLRRYGRAVGMLYQVVDDITEDKKKSYDGGAEKGMMEMAEELKEKAKKELQVFDNKYGGGDTLVPLYTFVDYAAHRHFLLPL
Consider B9, for which the % increase in strength of interaction (β-Gal) with 132G against 159G amounted to 88%.

B10: Oxygen-evolving enhancer protein 3-2 (natural protein)
chain: MAQAVTSMAGLRGASQAVLEGSLQINGSNRLNISRVSVGSQRTGLVIRAQQNVSVPESSRRSVIGLVAAGLAGGSFVKAVFAEAIPIKVGGPPLPSGGLPGTDNSDQARDFSLALKDRFYIQPLSPTEAAARAKDSAKEIINVKSFIDKKAWPYVQNDLRLRASYLRYDLNTVISAKPKEEKQSLKDLTAKLFQTIDNLDYAARSKSSPDAEKYYSETVSSLNNVLAKLG
The molecule B10 yielded a % increase in strength of interaction (β-Gal) with 132G against 159G of 20%.

B11: Sugar transporter EDR6-like 7 (natural protein)
chain: MSKASDAVREPLVDKNMAGSKPDQPWMVYLSTFVAVCGSFAFGSCAGYSSPAQAAIRNDLSLTIAEFSLFGSLLTFGAMIGAITSGPIADLVGRKGAMRVSSAFCVVGWLAIIFAKGVVALDLGRLATGYGMGAFSYVVPIFIAEIAPKTFRGALTTLNQILICTGVSVSFIIGTLVTWRVLALIGIIPCAASFLGLFFIPESPRWLAKVGRDTEFEAALRKLRGKKADISEEAAEIQDYIETLERLPKAKMLDLFQRRYIRSVLIAFGLMVFQQFGGINGICFYTSSIFEQAGFPTRLGMIIYAVLQVVITALNAPIVDRAGRKPLLLVSATGLVIGCLIAAVSFYLKVHDMAHEAVPVLAVVGIMVYIGSFSAGMGAMPWVVMSEIFPINIKGVAGGMATLVNWFGAWAVSYTFNFLMSWSSYGTFLIYAAINALAIVFVIAIVPETKGKTLEQIQAIVNP
For B11, the % increase in strength of interaction (β-Gal) with 132G against 159G was determined as 49.3%.

B12: MPBQ/MSBQ methyl transferase (natural protein)
chain: MASLMLNGAITFPKGLGSPGSNLHARSIPRPTLLSVTRTSTPRLSVATRCSSSSVSSSRPSAQPRFIQHKKEAYWFYRFLSIVYDHVINPGHWTEDMRDDALEPADLSHPDMRVVDVGGGTGFTTLGIVKTVKAKNVTILDQSPHQLAKAKQKEPLKECKIVEGDAEDLPFPTDYADRYVSAGSIEYWPDPQRGIREAYRVLKIGGKACLIGPVYPTFWLSRFFSDVWMLFPKEEEYIEWFKNAGFKDVQLKRIGPKWYRGVRRHGLIMGCSVTGVKPASGDSPLQLGPKEEDVEKPVNNPFSFLGRFLLGTLAAAWFVLIPIYMWIKDQIVPKDQPI
Turning to B12, the % increase in strength of interaction (β-Gal) with 132G against 159G amounted to 30.7%.

B13: Small GTP-binding protein (natural protein)
chain: MAMASAMDLSSPPTFFLSGTSTSSPSLRRLSSISVSGFRRHSNRKLQILCQATAGTEPQSGLSVSGSKLAARSGQDRLLKVPISNIRNFSIIAHIDHGKSTLADKLLQVTGTVQNRDMKEQFLDNMDLERERGITIKLQAARMRYVYEDTPFCLNLIDTPGHVDFSYEVSRSLAACEGALLVVDASQGVEAQTLANVYLALENNLEIIPVLNKIDLPGAEPEKVLREIEEVIGLDCSKAIFCSAKEGIGITEILDAIVQRIPAPLDTAGKPLRALIFDSYYDPYRGVIVYFRVIDGKVKKGDRIFFMASGKDYFADEVGVLSPNQIQVDELYAGEVGYIAASVRSVADARVGDTITHYSRKAESSLPGYEEATPMVFCGLFPVDADQFPDLRDALEKLQLNDAALKFEPETSSAMGFGFRCGFLGLLHMEIVQERLEREYNLNLITTAPSVVYRVNSVNGDTTLCSNPSRLPDPGQRKSVEEPYVKIELLTPKDYIGALMELAQERRGEFKEMKYIAENRASILYELPLAEMVGDFFDQLKSRTKGYASMEYSVIGYRESDLIKLDILINAEMVEPLSTIVHRDKAYSVGRALTQKLKELIPRQMFKVPIQACIGSKVIASEALSAIRKDVLAKCYGGDISRKKKLLKKQAAGKKRMKAIGRVDVPQEAFMAVLKLEREVL
Turning to B13, the % increase in strength of interaction (β-Gal) with 132G against 159G was found to be 41.1%.

B14: Fe superoxide dismutase 1 (natural protein)
chain: MAASSAVTANYVLKPPPFALDALEPHMSKQTLEFHWGKHHRAYVDNLKKQVLGTELEGKPLEHIIHSTYNNGDLLPAFNNAAQAWNHEFFWESMKPGGGGKPSGELLALLERDFTSYEKFYEEFNAAAATQFGAGWAWLAYSNEKLKVVKTPNAVNPLVLGSFPLLTIDVWEHAYYLDFQNRRPDYIKTFMTNLVSWEAVSARLEAAKAASA
In turn, B14 displayed a % increase in strength of interaction (β-Gal) with 132G against 159G of 99.5%.

B15: CCR-like protein (natural protein)
chain: MQGALFIKPTILLPLPSSVSSPKLTFLLPHATKASRLSSLRSNNSSSSSSLTSDPNTVDYNSSILSVFPAEACEVISGYACSADIYPEVKLDTKPVSRPVASEPVDREYEEYNSPKTVFREEACDDLGGEFCEPDFQKDAN
B15: the % increase in strength of interaction (β-Gal) with 132G against 159G turned out to be 74.4%.

B16: Putative 3-dehydroquinate synthase (natural protein)
chain: MAANTISLSNVAASKNLNSFQSRAFIAPPTIFFPVASAKSKPGELSLSSTTLSRSRVRAGASQLMNEPLNDQRSISSPTVVEVDLGDRSYPIYIGAGLLDHSELLQRHVHGKRVLVVTNDRVAPLYLDKTIDALTRGNPNVTVESVILPDGEKYKDMDTLMKVFDKAIESRLDRRCTFVALGGGVIGDMCGYAAASYLRGVNFIQIPTTVMAQVDSSVGGKTGINHRLGKNLIGAFYQPQCVLVDTDTLNTLPDREMASGLAEVIKYGLIRDAEFFEWQEKNIEALLARDPAALAFAIKRSCENKADVVSQDEKESGLRATLNLGHTFGHAIETGFGYGEWLHGEAVAAGTVMAVDMSYRLGWIDESIVKRVNKILVRAKLPTTPPESMTVSMFKSIMAVDKKVADGLLRLILLKGPLGNCVFTGDYDREALDATLRAFSKS
Take B16: the % increase in strength of interaction (β-Gal) with 132G against 159G came out at 27.8%.

B17: GLNB1-like protein (natural protein)
chain: MAASMTKPISITSLGFYSDRKNIAFSDCISICSGFRHSRPSCLDLVTKSPSNNSRVLPVVSAQISSDYIPDSKFYKVEAIVRPWRIQQVSSALLKIGIRGVTVSDVRGFGAQGGSTERHGGSEFSEDKFVAKVKMEIVVKKDQVESVINTIIEGARTGEIGDGKIFVLPVSDVIRVRTGERGEKAEKMTGDMLSPS
The molecule B17 registered a % increase in strength of interaction (β-Gal) with 132G against 159G of 39.8%.
